These results are taken from publication PMC4104448.

For the experiment, the target named is T1, Biotinylated human β-glucocerebrosidase (residues 40A-536R) (human).
T1 sequence (P04062 whole entry, looked up): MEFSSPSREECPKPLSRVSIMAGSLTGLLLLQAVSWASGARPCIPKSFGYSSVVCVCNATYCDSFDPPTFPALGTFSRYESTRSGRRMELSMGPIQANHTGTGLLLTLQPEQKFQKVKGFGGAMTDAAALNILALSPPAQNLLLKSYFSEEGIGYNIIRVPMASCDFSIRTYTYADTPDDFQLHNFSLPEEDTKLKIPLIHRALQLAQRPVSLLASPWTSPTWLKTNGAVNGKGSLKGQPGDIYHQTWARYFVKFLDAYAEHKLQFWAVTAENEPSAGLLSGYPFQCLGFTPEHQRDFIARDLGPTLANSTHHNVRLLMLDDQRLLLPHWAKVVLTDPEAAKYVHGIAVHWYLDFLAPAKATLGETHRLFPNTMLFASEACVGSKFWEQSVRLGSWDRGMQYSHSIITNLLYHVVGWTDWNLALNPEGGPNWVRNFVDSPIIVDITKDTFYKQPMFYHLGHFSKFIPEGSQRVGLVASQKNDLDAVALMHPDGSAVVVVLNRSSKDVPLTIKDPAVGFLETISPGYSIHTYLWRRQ
Put plainly: SPR; equilibrium binding; about 1,000 RU of biotinylated ligand on a streptavidin-coupled CM5 chip, LIMP-2 as analyte; Biacore T100, 25 °C, 10 mM HEPES pH 7.5, 150 mM NaCl, 0.005% Tween 20; one-site saturation binding model.

B1: Human LIMP-2 luminal domain (residues 28-431) produced from HEK293S (GnTI-) cells, with limited glycosylation (domain or fragment)
chain: VFQKAVDQSIEKKIVLRNGTEAFDSWEKPPLPVYTQFYFFNVTNPEEILRGETPRVEEVGPYTYRELRNKANIQFGDNGTTISAVSNKAYVFERDQSVGDPKIDLIRTLNIPVLTVIEWSQVHFLREIIEAMLKAYQQKLFVTHTVDELLWGYKDEILSLIHVFRPDISPYFGLFYEKNGTNDGDYVFLTGEDSYLNFTKIVEWNGKTSLDWWITDKCNMINGTDGDSFHPLITKDEVLYVFPSDFCRSVYITFSDYESVQGLPAFRYKVPAEILANTSDNAGFCIPEGNCLGSGVLNVSICKNGAPIIMSFPHFYQADERFVSAIEGMHPNQEDHETFVDINPLTGIILKAAKRFQINIYVKKLDDFVETGDIRTMVFPVMYLNESVHIDKETASRLKSMINT
modifications: N-linked P-Man9GlcNAc2 (with terminal mannose 6-phosphate) at N325; sugars on all nine N-linked glycosylation sites, limited processing
As for B1, the Kd (in general, the free concentration of one partner at which half of the binding sites on the other are occupied at equilibrium, for simple one-to-one binding) amounted to 1400 nM. In other words, the single-digit micromolar range.
